Reference: patent publication US9273304B2, “Inactivation method” (Thermo Fisher Scientific Baltics UAB, priority 2006, dated 2016)

Key:
Type in all cases: biochemical
[1] = molecular target: T1, Taq DNA polymerase (Thermus aquaticus, UniProt P19821); experiment: Reactivation of the modified Taq DNA polymerase by pre-incubation, activity measured at 50° C.
Procedure: The activity of modified Taq DNA polymerase was assayed as described in the Example 2. The enzyme was pre-incubated at different temperatures in the pre-heating buffer (see Example 2), its activity was measured at 50° C. in the reaction buffer of the following composition: 50 mM Tris (pH 8.4 at 25° C.), 10 mM KCl, 5 mM (NH4)2SO4 and 2 mM MgCl2. The activity of the modified DNA polymerase was normalized the activity of the unmodified one.

[2] = test system: CFTR gene or insulin gene, human genome DNA as template; experiment: PCR specificity and efficiency, mixtures set up at room temperature (CFTR and insulin gene fragments)
Procedure: Sets of PCR reactions were carried out in the Mastercycle (Eppendorf). The reactions performed using 2 units of both the unmodified and the modified enzymes. Composition of the buffer used in the experiments with the modified Taq DNA polymerase was described in the Example 7. The unmodified Taq DNA was tested in the buffer of the following compositions: 75 mM Tris-HCl (pH 8.8 at 25° C.), 20 mM (NH4)SO4, 0.01% Tween20. Both buffers were supplemented with 2 mM MgCl2, 0.2 mM dNTP, 0.5 μm of each PCR primer and human DNA (100 ng/50 μl). For amplification of 950 by DNA fragment of the CFTR gene, the same set of PCR primers was used as described in the Example 8. A 400 bp fragment of the insulin gene was amplified with the following set of PCR primers: […]
The components of PCR were mixed at room temperature and the reactions were performed using the following cycling profiles: • 1. For the 950 bp amplicon: 95° C.—5 min; (95° C.—[…], 50° C.—0.5 min, 72° C.—1 min)—40 cycles; 72° C.—7 min. • 2. For the 400 bp amplicon: 95° C.—5 min; (95° C.—0.5 min, 65° C.—0.5 min, 72° C.—1 min)—40 cycles; 72° C.—7 min.
After completion of PCR, the samples were mixed with aliquots (10 μl) of the 6× MassRuller™ Loading Dye (Fermentas), and the samples were analyzed by gel electrophoresis in 1.7% agarose. The Gene Ruler™ 100 bp DNA Ladder Plus (Fermentas) was used for evaluation of the amplicon size. Electrophoresis was performed in the TBE buffer (89 mM Tris, 89 mM H3BO3, and 1 mM EDTA) at 5 V/cm for 75 min. After completion of electrophoresis, gels were stained with ethidium bromide (0.5 μg/ml). Then, gels were destained in MiliQ-quality water for 20 minutes. DNA bands were visualized under UV.

[3] = molecular target: T1, Taq DNA polymerase; experiment: Activity in PCR measured by incorporation of [3H]-dTTP into the PCR product (pH and Mg2+ effect)
Procedure: Activity of Taq DNA polymerase modified with N-ethoxycarbonyl-N-2,3-dimethylmaleinimide at different pH during was measured by incorporation [^3H]-dTTP nucleotide into the PCR product.
Sets of PCR were carried out at the following pH values determined at 25° C.: 8.2, 8.3, 8.4, 8.5, 8.6, 8.7, and 8.8. The reactions were preformed in the GeneAmp® PCR System 9700 (Applied Biosystems) using 1.25 units of the modified enzymes in aliquots ([…] of the reaction buffer of the following composition: 20 mM Tris-HCl (pH values indicated above), 20 mM KCl, 5 mM (NH4)SO4, 1.5 mM MgCl2 supplemented with 0.2 mM dNTP, 0.8 MBq/ml [^3H]-dTTP, 0.5 […] of both PCR primers ([SEQ ID NO: 1] 5′-[…]-3′ and [SEQ ID NO: 2] 5′-[…]-3′), and human DNA (10 ng/50 μl).
Thermal cycling profile was the following: 95° C.—4 min; (95° C.—0.5 min, 50° C.—0.5 min, 72° C.—1 min)—30 cycles; 72° C.—7 min.
Activity of the modified DNA polymerase in PCR was determined as described in the Example 8. A set of PCR reactions was carried out in the reaction buffer (see Example 7) supplemented with the following Mg^2+ concentrations: 1 mM, 1.5 mM, 2 mM, 2.5 mM, 3 mM, 3.5 mM, 4 mM, 5 mM, 6 mM, 7 mM, and 8 mM.

T1 sequence (P19821 whole entry): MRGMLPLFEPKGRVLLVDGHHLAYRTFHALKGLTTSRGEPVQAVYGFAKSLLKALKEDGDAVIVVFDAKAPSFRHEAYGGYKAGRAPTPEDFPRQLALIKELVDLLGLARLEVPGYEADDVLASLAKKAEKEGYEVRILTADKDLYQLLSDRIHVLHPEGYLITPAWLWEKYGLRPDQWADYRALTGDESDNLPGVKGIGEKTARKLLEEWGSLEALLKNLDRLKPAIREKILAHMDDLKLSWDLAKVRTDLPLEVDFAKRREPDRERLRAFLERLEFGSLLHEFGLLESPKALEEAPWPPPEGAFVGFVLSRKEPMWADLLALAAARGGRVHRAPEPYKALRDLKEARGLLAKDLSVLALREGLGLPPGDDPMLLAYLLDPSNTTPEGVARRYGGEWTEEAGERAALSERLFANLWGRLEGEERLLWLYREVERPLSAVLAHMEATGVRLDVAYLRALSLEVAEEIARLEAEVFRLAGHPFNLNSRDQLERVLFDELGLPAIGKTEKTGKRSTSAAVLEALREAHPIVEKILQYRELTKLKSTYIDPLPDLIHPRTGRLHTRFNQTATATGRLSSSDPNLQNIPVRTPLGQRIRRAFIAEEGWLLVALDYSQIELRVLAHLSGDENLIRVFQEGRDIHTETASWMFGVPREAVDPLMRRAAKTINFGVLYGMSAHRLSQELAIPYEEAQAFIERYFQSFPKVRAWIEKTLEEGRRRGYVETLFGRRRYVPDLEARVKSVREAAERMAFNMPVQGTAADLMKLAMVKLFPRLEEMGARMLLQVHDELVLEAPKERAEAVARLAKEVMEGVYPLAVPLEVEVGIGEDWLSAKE

With “Taq DNA polymerase modified with N-etoxycarbonyl-2,3-dimethylmaleinimide: Recombinant Taq DNA polymerase reversibly inactivated by reaction with N-ethoxycarbonyl-2,3-dimethylmaleinimide in aqueous solution (preferred molar ratio 1/110)” the “Activity at 50° C. (%)” value ([1]; incubation time at 95° C. 0 min) was ~0%, the “Activity at 50° C. (%)” value ([1]; incubation time at 95° C. 0.5 min, listed as modified Taq DNA polymerase) was ~60% and the “Activity at 50° C. (%)” value ([1]; incubation time at 95° C. 0.5 min, listed as modified enzyme) was ~60%. For the same substance, the “Activity at 50° C. (%)” value ([1]; incubation time at 95° C. 1 min, listed as modified Taq DNA polymerase) was ~90%, the “Activity at 50° C. (%)” value ([1]; incubation time at 95° C. 1 min, listed as modified enzyme) was ~90% and the “Activity at 50° C. (%)” value ([1]; incubation time at 95° C. 1.5 min) was ~90%. For the same substance, the “Activity at 50° C. (%)” value ([1]; incubation time at 95° C. 2.0 min) was ~100%, the “Activity at 50° C. (%)” value ([1]; incubation time at 95° C. 3.0 min) was ~100% and the “reactivation by preheating at 90° C.” value ([1]; preheated at 90° C. for several minutes, FIG. 8) was “regained full activity”. For the same substance, the “yield of unspecific PCR byproducts versus unmodified DNA polymerase” value ([2]; CFTR and insulin gene fragments, PCR set up at room temperature, FIG. 10) was “lesser yield”, the “yield of the byproducts caused by the primer dimerization versus unmodified DNA polymerase” value ([2]; insulin gene 400 bp fragment) was “lower” and the “yield of the insulin amplicon versus unmodified DNA polymerase” value ([2]; insulin gene 400 bp fragment) was “higher yield”. For the same substance, the “activity within the 1.5-5.0 mM range of Mg2+ concentrations” value ([3]; 1.5-5.0 mM Mg2+) was ≥ 70%, the “Activity at 70° C. (%)” value ([3]; [Mg2+] 1 mM, incorporation of [3H]-dTTP into the PCR product) was ~0% and the “Activity at 70° C. (%)” value ([3]; [Mg2+] 1.5 mM) was ~70%. The “Activity at 70° C. (%)” value ([3]; [Mg2+] 2.0 mM) was ~70%, the “Activity at 70° C. (%)” value ([3]; [Mg2+] 2.5 mM) was ~100% and the “Activity at 70° C. (%)” value ([3]; [Mg2+] 3.0 mM) was ~100%. For the same substance, the “Activity at 70° C. (%)” value ([3]; [Mg2+] 3.5 mM) was ~100%, the “Activity at 70° C. (%)” value ([3]; [Mg2+] 4.0 mM) was ~90% and the “Activity at 70° C. (%)” value ([3]; [Mg2+] 5.0 mM) was ~70%. For the same substance, the “Activity at 70° C. (%)” value ([3]; [Mg2+] 6.0 mM) was ~30%, the “Activity at 70° C. (%)” value ([3]; [Mg2+] 7.0 mM) was ~20% and the “Activity at 70° C. (%)” value ([3]; [Mg2+] 8.0 mM) was ~10%. The “Activity at 70° C. (%)” value ([3]; ambient pH 8.2, incorporation of [3H]-dTTP into the PCR product) was ~30%, the “Activity at 70° C. (%)” value ([3]; ambient pH 8.3) was ~80% and the “Activity at 70° C. (%)” value ([3]; ambient pH 8.4) was ~100%. The “Activity at 70° C. (%)” value ([3]; ambient pH 8.5) was ~100%, the “Activity at 70° C. (%)” value ([3]; ambient pH 8.6) was ~100% and the “Activity at 70° C. (%)” value ([3]; ambient pH 8.7) was ~100%. For the same substance, the “Activity at 70° C. (%)” value ([3]; ambient pH 8.8) was ~60% and the “activity within the pH 8.3-8.7 range” value ([3]; pH 8.3-8.7) was ≥ 80%.
